Experimental data reported in patent US20240109960A1 (ARGENX, published 2024).

Key:
[1] = biological target: T1, human IL-9 (human, UniProt P15248 19-144); test: SPR (Biacore 3000), IL-9 immobilised on CM-5 chip, Fab periplasmic extract injected
T1 construct: Recombinant human IL-9 (R&D Systems) in SPR and BLI; baculovirus supernatant in the bioassay; also called hIL-9; Human IL-9 SN baculo
Method: (§1) The binding of Fabs (periplasmic extract) to their respective mouse or human targets was determined by surface plasmon resonance (SPR) using a Biacore 3000 apparatus (GE Healthcare). IL-9 was immobilized on a carboxymethyl dextran sensor chip (CM-5) using amine coupling in sodium acetate buffer (GE Healthcare). The Fab-containing periplasmic extracts were loaded with a flow rate of […]. The Fab binding and off-rates were measured over a 90 second period (Table 5). […] Furthermore, the ability of the antibodies to compete for human or mouse IL-9 binding to human or rat IL-9R was tested also in a Biacore 3000. For this assay, human or rat IL-9R was coated at high density on a carboxymethyl dextran sensor chip (CM-5). Then, a premade mixture of periplasmic extract (Fab) and IL-9 was injected.

[2] = biological target: T2, mouse IL-9 (mouse, UniProt P15247 19-144); test: as above
T2 construct: Recombinant mouse IL-9 (R&D Systems) in SPR and BLI; baculovirus supernatant in the bioassay; also called mIL-9; mIL9
T2 sequence: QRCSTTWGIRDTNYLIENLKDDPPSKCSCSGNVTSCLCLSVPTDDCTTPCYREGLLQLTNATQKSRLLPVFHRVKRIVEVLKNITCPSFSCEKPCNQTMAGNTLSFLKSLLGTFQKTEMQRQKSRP
Method: as §1

[3] = biological target: T1, human IL-9; test: BLI (Octet Red 96), mAb captured on anti-hIgG Fc sensor, hIL-9 in solution, 1:1 model
Method: (§2) The BLI experiments on the antagonistic antibodies were performed using an Octet Red 96 machine (Sartorius) in kinetics buffer (PBS, 0.1% (w/v) BSA, 0.02% (v/v) Tween20) at 298 K. Anti-hIgG Fc capture (AHC) or anti-mIgG Fc capture sensors (Sartorius) were functionalized with the IL-9 mAbs. […] Non-functionalized tips were used as negative controls in a double referenced setup. After subtracting the control sensorgrams, the resulting data was fitted with a 1:1 binding model. Data analysis was performed using the Data Analysis software 9.0.0.14 (Sartorius) (Table 6).

[4] = biological target: T1, human IL-9; test: cell-based or functional assay
[5] = biological target: T1, human IL-9; test: cell-based or functional assay; remark: listed apart in the source
[6] = biological target: T1, human IL-9; test: SPR screening of Fab periplasmic extracts
Method: as §1

[7] = biological target: T2, mouse IL-9; test: cell-based or functional assay
[8] = biological target: T2, mouse IL-9; test: BLI (Octet Red 96), mAb captured on anti-mIgG Fc sensor, mIL-9 in solution, 1:1 model
Method: as §2

T1 sequence (P15248 19-144 limits assumed): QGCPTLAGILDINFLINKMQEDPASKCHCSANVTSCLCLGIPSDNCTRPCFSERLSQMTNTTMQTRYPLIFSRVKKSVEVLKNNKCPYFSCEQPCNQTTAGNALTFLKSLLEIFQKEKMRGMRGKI

B1: Fab 6C4 (Fab, V domains shown)
VH: QVQLVESGGGLVQPGGSLRLSCAASGFTFDDYAMSWVRQAPGKGLEWVSAISWNGGSTYHAESMKGRFTISRDNAKNTLYLQMNSLKSEDTAVYYCAKNLYGSSWYEYDYWGQGTQVTVSS
VL: LSYELTQPSAVSTSLGQTARVTCQGDILESYGASWYQQKPGQAPVLVIYGDDSRPSGIPERFSGSSSGGTATLTISGAQAEDEADYYCLSADSSDYNAVFGGGTHLTVL
notes: Llama-derived Fab (VH-CH1 and VL-CL) from E. coli periplasmic extract; also called 9MP6C4
[1]
  koff: 0.00044 s⁻¹
[2]
  binding result: no binding

B2: anti-hIL-9 antibody 6E2 (full IgG) (antibody, V domains shown)
VH: QVQLVESGGGLVQPGGSLRLSCAASGFTFSSSAMGWVRQAPGKGLEWVSTIVNSITTTYYADSVKGRFTISTDNAKNTLYLQIDSLKSEDTAVYYCGSLAGPYYDYWGQGTQVTVSS
VL: LSSALTQPSTVSVSLGQTARITCQGGSLGSYDAHWYQQKPGQAPVLVIHDNNSRPSGIPERFTGSRSGETATLTISGAQTEDEADYYCQSYDSTSDALVFGGGTQLTVL
notes: also called mAb 6E2; 9MP6E2
[3]
  Kd: 0.24 nM
[4]
  IC50, inhibition of human IL-9-induced Baf3hIL9RA6 cell proliferation (hexosaminidase, OD405): 0.0609 nM
[5]
  Bioassay IC50 [pM]: inhibition of human IL-9-induced Baf3hIL9RA6 cell proliferation: 30.9 pM

B3: Fab 6E2 (Fab, V domains shown)
VH: QVQLVESGGGLVQPGGSLRLSCAASGFTFSSSAMGWVRQAPGKGLEWVSTIVNSITTTYYADSVKGRFTISTDNAKNTLYLQIDSLKSEDTAVYYCGSLAGPYYDYWGQGTQVTVSS
VL: LSSALTQPSTVSVSLGQTARITCQGGSLGSYDAHWYQQKPGQAPVLVIHDNNSRPSGIPERFTGSRSGETATLTISGAQTEDEADYYCQSYDSTSDALVFGGGTQLTVL
notes: it is treated as the same molecule; also called 9MP6E2
[2]
  binding result: no binding

B4: anti-hIL-9 antibody 7D6 (full IgG) (antibody, V domains shown)
VH: QLQLVESGPGLVKPSQTLSLTCTVSGGSITTGYYAWSWIRQPPGKGLEWMGFIARDGSTSYSPSLKSRTSISRDTSKNQFSLQLSSVTPEDTAVYYCARAGEGRSWYPGYYYGMDYWGKGTLVTVSS
VL: AQAVVTQEPSLSVSPGGTVTLTCGLSSGSVTSSNYPGWYQQTPGQAPRVLIYNTNSRHSGVPSRYSGFISGNKAALTITGAEPEDEADYYCHLHKGSTGVFGGGTHLTVL
notes: also called 9MP7D6
[3]
  Kd: 1.81 nM
[4]
  IC50, inhibition of human IL-9-induced Baf3hIL9RA6 cell proliferation (hexosaminidase, OD405): 6.3 nM
[5]
  Bioassay IC50 [pM]: inhibition of human IL-9-induced Baf3hIL9RA6 cell proliferation: 2110 pM

B5: Fab 7D6 (Fab, V domains shown)
VH: QLQLVESGPGLVKPSQTLSLTCTVSGGSITTGYYAWSWIRQPPGKGLEWMGFIARDGSTSYSPSLKSRTSISRDTSKNQFSLQLSSVTPEDTAVYYCARAGEGRSWYPGYYYGMDYWGKGTLVTVSS
VL: AQAVVTQEPSLSVSPGGTVTLTCGLSSGSVTSSNYPGWYQQTPGQAPRVLIYNTNSRHSGVPSRYSGFISGNKAALTITGAEPEDEADYYCHLHKGSTGVFGGGTHLTVL
notes: it is treated as the same molecule; also called 9MP7D6
[2]
  binding result: no binding

B6: Fab 7A4 (Fab, V domains shown)
VH: EVQLVESGPGLVKPSQTLSLTCTVSGGSITTGYYAWSWIRQPPGKGLEWMGFIARDGSTSYSPSLKSRTSISRDTSKNQFSLQLSSVTPEDTAVYYCARAGEGRSWYPGYYYGMDYWGKGTLVTVSS
VL: AQAVVTQEPSLSVSPGGTVTLTCGLSSGSVTSSNYPAWYQQTPGQAPRVLIYNTNSRHSGVPSRYSGFISGNKAALTITGAEPEDEADYYCHLHEGSTGVFGGGTHLNVL
notes: Llama-derived Fab (VH-CH1 and VL-CL) from E. coli periplasmic extract; also called 9MP7A4
[1]
  koff: 0.00013 s⁻¹
[2]
  binding result: no binding

B7: Fab 6F2 (Fab, V domains shown)
VH: EVQLQESGPGLVKPSQTVSLTCTVSGGSITTRYYGWSWIRQPPGKGLEWMGVVYSDGSTSYSPSLESRTSISRDTSKNQFSLQLSFVTPEDTAVYYCARDRAEARLRVGPTGGNDYWGQGTQVTVSS
VL: AQAVVTQEPSLSVSPGGTVTLTCGLSSESVTSSNYPDWYQQTPGQVPRLLIYTTNSRHSGVPSRFSGSISGNKAALTITGAQPEDEADYYCGLYMGSTAVFGGGTKLTVL
notes: Llama-derived Fab (VH-CH1 and VL-CL) from E. coli periplasmic extract; also called 9MP6F2
[6]
  binding result: binds

B8: Fab 8G3 (Fab, V domains shown)
VH: EVQLVESGPGLVKPSQTLSLTCTVSGDSITTSYYGWGWIRQPPGKGLEWMGVIFSDGGTTYSPSLKSRTSISRDTSKSQFSLQLSSVTPEDTAVYYCARVQYYSGSYSYPTHIYDYWSQGTQVTVSS
VL: AQAVVTQEPSLSVSPGGTVTLTCGLSSGSVTTSNYPGWFQQTPGQAPRTLIYSTSSRHSGVPSRFSGSMSGNKAALTITGAQPEDEADYYCALHMGSSTVFGGGTHLTVL
notes: Llama-derived Fab (VH-CH1 and VL-CL) from E. coli periplasmic extract; also called 9MP8G3
[6]
  binding result: binds

B9: Fab 8C3 (Fab, V domains shown)
VH: EVQVQESGPGLVKPSQTLSLTCTVSGGSITTSSYGWMWIRQPPGKGLEWMGVIFSDGSTAYNPSLRSRTSISRDTSKNQFSLQLSSVTPEDTAVYYCARSFVRGVVIGELDYGMDYWGKGTLVTVSS
VL: AQAVVTQEPSLSVSPGGTVTLTCGLSSGSVTTSNYPGWFQQTPGQAPRTLIYSTSSRHSGVPSRFSGSMSGNKAALTITGAQPEDEADYYCALHMGSSTVFGGGTHLTVL
notes: Llama-derived Fab (VH-CH1 and VL-CL) from E. coli periplasmic extract; also called 9MP8C3
[1]
  koff: 0.00067 s⁻¹
[2]
  binding result: no binding

B10: anti-hIL-9 antibody 6D3 (full IgG) (antibody, V domains shown)
VH: QVQVQESGPGLVKPSQTLSLTCTVSGGPITTRYYAWSWIRQPPGKGLEWMGLIDYDGSVYYSPSLKSRTSISRDTAKNQFSLQLSSVTPEDTAVYYCARVSAATLFLDYWGQGTQVTVSS
VL: LSYELTQPSALSVTLGQTAKITCQGGSLGSSYAHWYQQKPDQAPILVIYDDDSRPSGIPERFSGSSSGGTATLTISGAQAEDEGDYYCQSYDSSANFVFGGGTKLTVL
notes: also called mAb 6D3; 9MP6D3
[3]
  Kd: 0.13 nM
[4]
  IC50, inhibition of human IL-9-induced Baf3hIL9RA6 cell proliferation (hexosaminidase, OD405): 0.115 nM
[5]
  Bioassay IC50 [pM]: inhibition of human IL-9-induced Baf3hIL9RA6 cell proliferation: 58.4 pM

B11: Fab 6D3 (Fab, V domains shown)
VH: QVQVQESGPGLVKPSQTLSLTCTVSGGPITTRYYAWSWIRQPPGKGLEWMGLIDYDGSVYYSPSLKSRTSISRDTAKNQFSLQLSSVTPEDTAVYYCARVSAATLFLDYWGQGTQVTVSS
VL: LSYELTQPSALSVTLGQTAKITCQGGSLGSSYAHWYQQKPDQAPILVIYDDDSRPSGIPERFSGSSSGGTATLTISGAQAEDEGDYYCQSYDSSANFVFGGGTKLTVL
notes: it is treated as the same molecule; also called 9MP6D3
[2]
  binding result: no binding

B12: anti-mIL-9 antibody 35D8, new batch (mIgG1-N297A) (antibody, V domains shown)
VH: QVQLVESGPGLVQPSQTLSLTCTVSGGSITTSYYDWSWIRQPPGKGLEWMGAIAYSGNAYYSPSLKSRTSISRDTSKNQFTLQLSSVTPEDTAVYYCAREDHYSDTHGWNDYWGQGTQVTVSS
VL: SSALTQPSAVSVSLGQTARITCQGGSIGNFGATWYQQKPGQAPVLLSLGEHSRPSGIPERFSGSKSGGTATLTISGAQAEDEADYYCQSFDYIGNDHVFGGGTHLTVL
[7]
  Bioassay IC50 [pM]: neutralisation of mouse IL-9 on TS1 cells (hexosaminidase activity): 20.1 pM

B13: Fab 35D8 (Fab, V domains shown)
VH: QVQLVESGPGLVQPSQTLSLTCTVSGGSITTSYYDWSWIRQPPGKGLEWMGAIAYSGNAYYSPSLKSRTSISRDTSKNQFTLQLSSVTPEDTAVYYCAREDHYSDTHGWNDYWGQGTQVTVSS
VL: SSALTQPSAVSVSLGQTARITCQGGSIGNFGATWYQQKPGQAPVLLSLGEHSRPSGIPERFSGSKSGGTATLTISGAQAEDEADYYCQSFDYIGNDHVFGGGTHLTVL
notes: it is treated as the same molecule
[1]
  binding result: no binding
[2]
  koff: 0.00047 s⁻¹

B14: anti-mIL-9 antibody 35D8 (full mIgG2a) (antibody, V domains shown)
VH: QVQLVESGPGLVQPSQTLSLTCTVSGGSITTSYYDWSWIRQPPGKGLEWMGAIAYSGNAYYSPSLKSRTSISRDTSKNQFTLQLSSVTPEDTAVYYCAREDHYSDTHGWNDYWGQGTQVTVSS
VL: SSALTQPSAVSVSLGQTARITCQGGSIGNFGATWYQQKPGQAPVLLSLGEHSRPSGIPERFSGSKSGGTATLTISGAQAEDEADYYCQSFDYIGNDHVFGGGTHLTVL
notes: the BLI values are placed here; also called mouse IL-9 mAb
[8]
  Kd: 0.11 nM
  koff: 0.000159 s⁻¹
  kon: 1.39e+06 M⁻¹ s⁻¹
